From US6432922 (CORVAS INTERNATIONAL, dated 2002)
Several values for one entry are separate records, joined by “and”; a condition that tells them apart may be missing. Identical values can stand only once. Non-standard residues stand in square brackets, D forms with d. Primed or numbered codes have the meaning given here. No end group written: not given here. *: point of attachment. cyclohexylmethylazacarbonyl = cyclohexylmethylazacarbonyl N-terminal cap, introduced with cyclohexylmethyl isocyanate, O=C(NCC1CCCCC1)*; benzylazacarbonyl = benzylazacarbonyl N-terminal cap (benzylaminocarbonyl), introduced with benzyl isocyanate, O=C(NCc1ccccc1)*; Argininal = arginine aldehyde, N=C(N)NCCC[C@@H](C=O)N*; argininal = arginine aldehyde, N=C(N)NCCC[C@@H](C=O)N*; aldehyde′ = argininal (arginine aldehyde) C-terminus; Propanoyl(3-cHex) = O=C(CCC1CCCCC1)*; Isobutyloxycarbonyl = CC(C)COC(=O)*; d(aThr) = C[C@@H](O)[C@@H](N)C(=O)O; cisHyp = O=C(O)[C@@H]1C[C@H](O)CN1; Isopropoxycarbonyl = CC(C)OC(=O)*; 3‑phenylpropyl = c1ccc(CCC*)cc1; d(hSer) = N[C@H](CCO)C(=O)O; Isovaleryl = CC(C)CC(=O)*; NMeA = CN[C@@H](C)C(=O)O; dAbu = CC[C@@H](N)C(=O)O; dDap = NC[C@@H](N)C(=O)O; Cbz = O=C(OCc1ccccc1)*; Sar = CNCC(=O)O

B1: Isobutyloxycarbonyl-D-seryl-L-alanyl-argininal (peptide)
peptide: isobutyloxycarbonyl-[dS]-Ala-[Argininal]
modifications: not fully specified (C-terminus); printed as i-Butoxycarbonyl-D-Ser-L-Ala-Argininal; also: trifluoroacetate salt
B2: (-)menthyloxy-carbonyl-D-seryl-alanyl-argininal (peptide)
peptide: {(−)menthyloxycarbonyl}-[dS]-Ala-[Argininal]
B3: cyclohexylmethyloxycarbonyl-D-seryl-alanyl-argininal (peptide)
peptide: cyclohexylmethyloxycarbonyl-[dS]-Ala-[argininal]
B4: cyclohexylmethylazacarbonyl-D-seryl-alanyl-argininal (peptide)
peptide: cyclohexylmethylazacarbonyl-[dS]-Ala-[argininal]
B5: benzylazacarbonyl-D-seryl-alanyl-argininal (peptide)
peptide: benzylazacarbonyl-[dS]-Ala-Arg-{aldehyde′}
B6: isopropyloxycarbonyl-D-seryl-alanyl-argininal (peptide)
peptide: Isopropoxycarbonyl-[dS]-Ala-[argininal]
B7: 2-naphthyloxy-carbonyl-D-seryl-alanyl-argininal (peptide)
peptide: {2‑naphthyloxycarbonyl}-[dS]-Ala-Arg-{aldehyde′}
B8: N-α-N-β-dibenzyloxycarbonyl-D-2,3-diaminopropionyl-alanyl-argininal (peptide)
peptide: Cbz-[dDap](Cbz)-Ala-[argininal]
B9: phenoxycarbonyl-D-seryl-alanyl-argininal (peptide)
peptide: phenoxycarbonyl-[dS]-Ala-[argininal]
B10: benzyloxycarbonyl-D-seryl-L-seryl-argininal (peptide)
peptide: Cbz-[dS]-Ser-Arg-{aldehyde′}
B11: 2-phenylethylsulfonyl-D-seryl-alanyl-argininal (peptide)
peptide: {2‑phenylethylsulfonyl}-[dS]-Ala-Arg-{aldehyde′}
B12: 3-phenylpropylsulfonyl-D-seryl-alanyl-argininal (peptide)
peptide: {3‑phenylpropylsulfonyl}-[dS]-Ala-Arg-{aldehyde′}
B13: benzyloxycarbonyl-D-seryl-L-cis-4-hydroxyprolyl-argininal (peptide)
peptide: Cbz-[dS]-[cisHyp]-Arg-{aldehyde′}
B14: 2-ethylhexyloxy-carbonyl-D-seryl-alanyl-argininal (peptide)
peptide: {2‑ethylhexyloxycarbonyl}-[dS]-Ala-Arg-{aldehyde′}
B15: trans-β-Styrenesulfonyl-D-seryl-L-alanyl-argininal (peptide)
peptide: {trans‑β‑styrenesulfonyl}-[dS]-Ala-[argininal]
B16: (+)menthyloxy-carbonyl-D-seryl-alanyl-argininal (peptide)
peptide: {(+)menthyloxycarbonyl}-[dS]-Ala-[Argininal]
B17: methyloxycarbonyl-D-seryl-alanyl-argininal (peptide)
peptide: methyloxycarbonyl-[dS]-Ala-[argininal]
B18: n-butyloxycarbonyl-D-seryl-alanyl-argininal (peptide)
peptide: {n‑butyloxycarbonyl}-[dS]-Ala-[argininal]
B19: fluorenylmethyloxycarbonyl-D-seryl-alanyl-argininal (peptide)
peptide: fluorenylmethyloxycarbonyl-[dS]-Ala-[argininal]
B20: benzyloxycarbonyl-D-seryl-prolyl-argininal (peptide)
peptide: Cbz-[dS]-Pro-[argininal]
B21: benzyloxycarbonyl-D-seryl-S-methylcysteinyl-argininal (peptide)
peptide: Cbz-[dS]-Cys(Me)-Arg-{aldehyde′}
B22: benzyloxycarbonyl-D-seryl-2-glycyl-argininal (peptide)
peptide: Cbz-[dS]-Gly-Arg-{aldehyde′}
B23: benzyloxycarbonyl-D-seryl-alanyl-argininal (peptide)
peptide: Cbz-[dS]-Ala-[argininal]
B24: benzyloxycarbonyl-D-allothreonyl-alanyl-argininal (peptide)
peptide: Cbz-[d(aThr)]-Ala-Arg-{aldehyde′}
B25: benzyloxycarbonyl-threonyl-alanyl-argininal (peptide)
peptide: Cbz-Thr-Ala-[argininal]
B26: benzyloxycarbonyl-D-alanyl-alanyl-argininal (peptide)
peptide: Cbz-[dA]-Ala-Arg-{aldehyde′}
B27: benzyloxycarbonyl-D-allothreonyl-sarcosyl-argininal (peptide)
peptide: Cbz-[d(aThr)]-[Sar]-Arg-{aldehyde′}
B28: benzyloxycarbonyl-D-allothreonyl-N-methylalanyl-argininal (peptide)
peptide: Cbz-[d(aThr)]-[NMeA]-Arg-{aldehyde′}
B29: benzyloxycarbonyl-D-threonyl-prolyl-argininal (peptide)
peptide: Cbz-[dT]-Pro-[argininal]
B30: benzyloxycarbonyl-D-homoseryl-prolyl-argininal (peptide)
peptide: Cbz-[d(hSer)]-Pro-[argininal]
B31: Benzenesufonyl-D-Ser-L-Ala-L-Arg-al, Trifluoroacetate Salt (peptide)
peptide: benzenesulfonyl-[dS]-Ala-Arg-{aldehyde′}
modifications: also: trifluoroacetate salt
B32: Benzylsulfonyl-D-Ser-Ala-Arg-al, Trifluoroacetate Salt (peptide)
peptide: benzylsulfonyl-[dS]-Ala-Arg-{aldehyde′}
modifications: also: trifluoroacetate salt
B33: i-butoxycarbonyl-D-Ser-Ala-Arg-CO-phenethylamide, trifluoroacetate salt (peptide)
peptide: Isobutyloxycarbonyl-[dS]-Ala-Arg-{CO‑phenethylamide}
modifications: also: trifluoroacetate salt
B34: N-α-(3-phenylpropyl)-D-seryl-alanyl-argininal, trifluoroacetate salt (peptide)
peptide: {3‑phenylpropyl}-[dS]-Ala-Arg-{aldehyde′}
modifications: also: trifluoroacetate salt
B35: 3-cyclohexylpropionyl-D-seryl-alanyl-argininal (peptide)
peptide: {Propanoyl(3-cHex)}-[dS]-Ala-Arg-{aldehyde′}
B36: isovaleryl-D-seryl-alanyl-argininal (peptide)
peptide: Isovaleryl-[dS]-Ala-[argininal]
B37: N-α-benzyloxycarbonyl-N-β-2-phenylethylcarbonyl-D-2,3-diaminopropionyl-alanyl-argininal (peptide)
peptide: Cbz-[dDap](2‑phenylethylcarbonyl)-Ala-[argininal]
B38: N-α-benzyloxycarbonyl-N-β-methyloxycarbonyl-D-2,3-diaminopropionyl-alanyl-argininal (peptide)
peptide: Cbz-[dDap](methyloxycarbonyl)-Ala-[argininal]
B39: benzyloxycarbonyl-D-2-aminobutyryl-L-alanyl-argininal (peptide)
peptide: Cbz-[dAbu]-Ala-[argininal]
B40: benzyloxycarbonyl-D-seryl-sarcosyl-argininal (peptide)
peptide: Cbz-[dS]-[Sar]-[argininal]
B41: benzyloxycarbonyl-D-threonyl-alanyl-argininal (peptide)
peptide: Cbz-[dT]-Ala-[argininal]
B42: benzyloxycarbonyl-seryl-alanyl-argininal (peptide)
peptide: Cbz-Ser-Ala-[argininal]

Biological target: Urokinase (Abbokinase), manufactured by Abbott Laboratories (UniProt P00749 156-431)
Experiment: cell-based or functional assay

Row | Binder | IC50
1 | B1 | < 100 nM
2 | B2 | < 100 nM
3 | B3 | < 100 nM
4 | B4 | ≥ 100 nM and ≤ 250 nM
5 | B5 | ≥ 100 nM and ≤ 250 nM
6 | B6 | < 100 nM
7 | B7 | < 100 nM
8 | B8 | ≥ 100 nM and ≤ 250 nM
9 | B9 | < 100 nM
10 | B10 | ≥ 100 nM and ≤ 250 nM
11 | B11 | < 100 nM
12 | B12 | < 100 nM
13 | B13 | < 100 nM
14 | B14 | < 100 nM
15 | B15 | < 100 nM
16 | B16 | < 100 nM
17 | B17 | < 100 nM

Row | Binder | IC50
18 | B18 | < 100 nM
19 | B19 | < 100 nM
20 | B20 | < 100 nM
21 | B21 | ≥ 100 nM and ≤ 250 nM
22 | B22 | ≥ 100 nM and ≤ 250 nM
23 | B23 | < 100 nM
24 | B24 | < 100 nM
25 | B25 | ≥ 100 nM and ≤ 250 nM
26 | B26 | ≥ 100 nM and ≤ 250 nM
27 | B27 | ≥ 100 nM and ≤ 250 nM
28 | B28 | ≥ 100 nM and ≤ 250 nM
29 | B29 | ≥ 100 nM and ≤ 250 nM
30 | B30 | ≥ 100 nM and ≤ 250 nM
31 | B31 | < 100 nM
32 | B32 | < 100 nM
33 | B33 | ≥ 100 nM and ≤ 250 nM
34 | B34 | < 100 nM

Biological target: Human rt-PA (Activase), obtained from Genentech Inc. (human, UniProt P00750 36-562)
Experiment: cell-based or functional assay

Chain of Human rt-PA (Activase), obtained from Genentech Inc. (P00750 36-562 limits assumed): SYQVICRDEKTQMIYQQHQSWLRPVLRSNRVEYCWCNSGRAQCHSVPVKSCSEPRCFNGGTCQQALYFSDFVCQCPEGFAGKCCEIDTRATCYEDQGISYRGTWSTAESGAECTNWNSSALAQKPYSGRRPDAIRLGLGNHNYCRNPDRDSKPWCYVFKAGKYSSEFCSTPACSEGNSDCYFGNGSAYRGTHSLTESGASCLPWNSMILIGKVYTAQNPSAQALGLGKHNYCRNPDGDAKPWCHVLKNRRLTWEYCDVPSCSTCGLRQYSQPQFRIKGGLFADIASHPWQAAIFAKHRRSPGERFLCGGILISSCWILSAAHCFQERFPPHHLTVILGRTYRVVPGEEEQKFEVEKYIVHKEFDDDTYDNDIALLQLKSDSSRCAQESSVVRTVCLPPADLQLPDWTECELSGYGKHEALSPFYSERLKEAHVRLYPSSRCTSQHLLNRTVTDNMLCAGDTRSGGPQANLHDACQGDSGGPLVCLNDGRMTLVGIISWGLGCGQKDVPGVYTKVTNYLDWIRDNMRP

Row | Binder | IC50 [nM]
35 | B1 | > 2500
36 | B2 | > 2500
37 | B35 | > 2500
38 | B3 | > 2500
39 | B4 | > 2500
40 | B5 | > 2500
41 | B36 | > 2500
42 | B6 | > 2500
43 | B7 | > 2500
44 | B37 | > 2500
45 | B8 | > 2500
46 | B38 | > 2500
47 | B39 | > 2500
48 | B9 | > 2500
49 | B10 | > 2500
50 | B11 | > 2500
51 | B12 | > 2500
52 | B13 | > 2500
53 | B14 | > 2500

Row | Binder | IC50 [nM]
54 | B15 | > 2500
55 | B16 | > 2500
56 | B17 | > 2500
57 | B18 | > 2500
58 | B19 | > 2500
59 | B20 | > 2500
60 | B21 | > 2500
61 | B22 | > 2500
62 | B40 | > 2500
63 | B24 | > 2500
64 | B25 | > 2500
65 | B41 | > 2500
66 | B42 | > 2500
67 | B29 | > 2500
68 | B30 | > 2500
69 | B31 | > 2500
70 | B32 | > 2500
71 | B33 | > 2500
72 | B34 | > 2500

Biological target: Purified human plasmin, obtained from Enzyme Research Laboratories, Inc. (human, UniProt P00747 97-810, limits assumed)
Experiment: cell-based or functional assay

Chain of Purified human plasmin, obtained from Enzyme Research Laboratories, Inc. (P00747 97-810 limits assumed): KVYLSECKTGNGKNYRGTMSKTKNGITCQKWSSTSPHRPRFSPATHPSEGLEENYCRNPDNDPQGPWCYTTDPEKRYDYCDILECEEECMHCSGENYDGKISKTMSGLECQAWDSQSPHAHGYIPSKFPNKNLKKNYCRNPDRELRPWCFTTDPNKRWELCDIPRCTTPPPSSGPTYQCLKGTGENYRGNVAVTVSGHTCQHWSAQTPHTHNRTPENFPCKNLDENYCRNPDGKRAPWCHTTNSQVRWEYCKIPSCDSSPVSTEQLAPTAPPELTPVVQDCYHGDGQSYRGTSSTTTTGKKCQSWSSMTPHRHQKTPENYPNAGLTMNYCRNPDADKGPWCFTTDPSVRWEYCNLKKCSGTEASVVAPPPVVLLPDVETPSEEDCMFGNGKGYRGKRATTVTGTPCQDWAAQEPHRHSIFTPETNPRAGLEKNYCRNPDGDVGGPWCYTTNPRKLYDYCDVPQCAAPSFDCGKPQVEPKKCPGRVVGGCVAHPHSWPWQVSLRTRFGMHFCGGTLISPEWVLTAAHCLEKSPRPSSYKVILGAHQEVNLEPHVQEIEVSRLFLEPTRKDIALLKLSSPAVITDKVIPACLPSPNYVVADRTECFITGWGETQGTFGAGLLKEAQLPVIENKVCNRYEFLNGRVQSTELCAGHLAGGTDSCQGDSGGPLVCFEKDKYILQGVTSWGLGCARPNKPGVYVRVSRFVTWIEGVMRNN

Row | Binder | IC50
73 | B35 | > 2500 nM
74 | B4 | > 2500 nM
75 | B5 | > 2500 nM
76 | B36 | > 2500 nM
77 | B6 | > 2500 nM
78 | B8 | ≥ 100 nM and ≤ 250 nM
79 | B30 | < 100 nM
